Substitutions are numbered along the chain they refer to. Like-named read-outs stand apart in the source and are kept apart here.
Assays:
[1] = target: gp120 glycoprotein of HIV-1 strain MN (HIV-1 strain MN, UniProt P05877 32-513, limits assumed); assay: cell-based or functional assay
[2] = target: T1, recombinant gp120 of HIV-1 strain IIIb (HIV-1 strain IIIb, UniProt P04578 33-511); assay: SPR BIAcore, gp120 on chip (summary table)
T1 construct: domain: gp120; also called IIIb-derived gp120; gp 120 (IIIB strain)

[3] = target: T1, recombinant gp120 of HIV-1 strain IIIb; assay: SPR BIAcore, gp120 on chip;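 on Ka: fab fragments flowed at 0.5 to 10 ug/ml over immobilized gp120, resonance units tracked during association and dissociation, equilibrium constants derived from the rate constants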
Text: (§1) As the mass of the gold chips increases due to the binding of the Fabs to the ligand, the refractive index of the chips increases indicating a coordinate increase in the increase of the mass. Measurements of the "on" rate are made in addition to the "off" rates, the latter of which occurs as the Fabs begin to dissociate from the ligand and the mass coordinately decreases, thereby allowing a measurement of the change of the refractive index. Briefly, the sensor chip was activated for immobilization with N-hydroxysuccinimide an N-ethyl-N'-(3-diethyl aminopropyl) carbodiimide. The proteins, MN-derived or IIIb-derived gp120, were coupled to the surface by injection of 50 ul of a 50 ug/ml sample. Excess activated esters were quenched with 15 ul ethanolamine, 1 M pH 8.5. Typically, 4000 resonance units were immobilized. Binding of Fab fragments to immobilized gp120 was studied by injection of Fab in a range of concentrations (0.5 to 10 ug/ml) at a flow rate of 5 ul/minute. The association was monitored as the increase in resonance units per unit time. Dissociation measurements were acquired following the end of the association phase but with a flow rate of 50 ul/minute. The binding surface was regenerated with HCl, 1M NaCl, pH 3 and remained active for 20–40 measurements. […] Equilibrium association and dissociation constants were deduced from the rate constants.
The soluble composite Fabs were then analyzed for binding affinity to gp120 strain IIIB.

[4] = target: T1, recombinant gp120 of HIV-1 strain IIIb; assay: SPR BIAcore, gp120 on chip; remark: listed apart in the source;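 on Ka: fab fragments flowed at 0.5 to 10 ug/ml over immobilized gp120, resonance units tracked during association and dissociation, equilibrium constants derived from the rate constants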
[5] = target: T1, recombinant gp120 of HIV-1 strain IIIb; assay: SPR BIAcore, gp120 on chip; remark: listed apart in the source;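 on Ka: fab fragments flowed at 0.5 to 10 ug/ml over immobilized gp120, resonance units tracked during association and dissociation, equilibrium constants derived from the rate constants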
Text: as §1
The soluble M556 series Fabs were then analyzed for binding affinity to gp120 (strain IIIB).

[6] = target: T1, recombinant gp120 of HIV-1 strain IIIb; assay: SPR BIAcore, gp120 on chip; remark: listed apart in the source;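 on Ka: fab fragments flowed at 0.5 to 10 ug/ml over immobilized gp120, resonance units tracked during association and dissociation, equilibrium constants derived from the rate constants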
Text: In the assay, the gp120 glycoprotein, isolated from both MN (AgMed, Cambridge, Mass.) and IIIb (American Bio-Technologies) strains of HIV-1 were coated onto gold chips. […] As the mass of the gold chips increases due to the binding of the Fabs to the ligand, the refractive index of the chips increases indicating a coordinate increase in the increase of the mass. Measurements of the "on" rate are made in addition to the "off" rates, the latter of which occurs as the Fabs begin to dissociate from the ligand and the mass coordinately decreases, thereby allowing a measurement of the change of the refractive index. Briefly, the sensor chip was activated for immobilization with N-hydroxysuccinimide an N-ethyl-N'-(3-diethyl aminopropyl) carbodiimide. The proteins, MN-derived or IIIb-derived gp120, were coupled to the surface by injection of 50 ul of a 50 ug/ml sample. Excess activated esters were quenched with 15 ul ethanolamine, 1 M pH 8.5. Typically, 4000 resonance units were immobilized. Binding of Fab fragments to immobilized gp120 was studied by injection of Fab in a range of concentrations (0.5 to 10 ug/ml) at a flow rate of 5 ul/minute. The association was monitored as the increase in resonance units per unit time. Dissociation measurements were acquired following the end of the association phase but with a flow rate of 50 ul/minute. The binding surface was regenerated with HCl, 1M NaCl, pH 3 and remained active for 20–40 measurements. […] Equilibrium association and dissociation constants were deduced from the rate constants.

[7] = target: T1, recombinant gp120 of HIV-1 strain IIIb; assay: SPR BIAcore, gp120 on chip; remark: listed apart in the source
Text: as §1
The soluble A–D series Fabs were then analyzed for binding affinity to gp120 strain IIIB.

B1: Fab 3b9 (Fab, V domains shown)
VH: LEQSGAEVKKPGASVKVSCQASGYRFSNFTVHWVRQAPGQRFEWMGWINPYNGNKEFSAKFQDRVTFTADTSANTAYMELRSLRSADTAVYYCARVGPWRWDDSPQDNYYMDVWGKGTIVIVSS
VL: ELTQSPGTLSLSPGERATFSCRSSHSIRSRRVAWYQHKPGQAPRLVIHGVSNRASGISDRFSGSGSGTDFTLTITRVEPEDFALYYCQVYGASSYTFGQGTKLERKR
IC50 (M^-1), syncytium neutralization assay, HIV-1 MN on CEM-SS cells [1]: 6.4e+09 M⁻¹
Neutralization Titer (ng/ml), syncytium assay, HIV-1 MN [1]: 7.8 ng/mL

B2: composite Fab H33/L42-17 (Fab, V domains shown)
VH: LEQSGAEVKKPGASVKVSCQASGYRFSHFTLHWVRQAPGQRFEWHGWINPYNGNKEFSAKFQDRVTFTADTSANTAYMELRSLRSADTAVYYCARVGEWGWEMFRYDNYYMDVWGKGTTVIVSS
VL: B1 VL with S26Q, I27L, R28D, S29G, R30S, V89Q, A92W, S93P, S94F
Kd [2]: 0.183 nM
Fold Increase of Mutant Kd Compared to MT4 Kd [3]: 34.4 fold
Ka [3]: 5.46e+09 M⁻¹
Kd [3]: 0.183 nM
koff [4]: 1.78e-05 s⁻¹
kon [4]: 98400 M⁻¹ s⁻¹

B3: composite Fab H101/L42-16 (Fab, V domains shown)
VH: B2 VH with L31V, E102H, M103Q, F104R
VL: B1 VL with S26Q, I27L, R28D, S29G, R30S, V89Q, A92W, S93P, S94F
Kd [2]: 0.17 nM
Fold Increase of Mutant Kd Compared to MT4 Kd [3]: 36.6 fold
Ka [3]: 5.81e+09 M⁻¹
Kd [3]: 0.172 nM
koff [4]: 1.19e-05 s⁻¹
kon [4]: 69100 M⁻¹ s⁻¹

B4: composite Fab H33/LH-11 (Fab, V domains shown)
VH: B2 VH
VL: B1 VL with S26Q, I27L, R28D, S29G, R30S, V89T, A92R, S93G, S94H
Kd [2]: 0.0738 nM
Fold Increase of Mutant Kd Compared to MT4 Kd [3]: 85.4 fold
Ka [3]: 1.36e+10 M⁻¹
Kd [3]: 0.0738 nM
koff [4]: 5.45e-06 s⁻¹
kon [4]: 73200 M⁻¹ s⁻¹

B5: Fab 3b4 (Fab, V domains shown)
VH: LEQSGAEVKKPGASVKVSCQASGYRFSNYTLIWVRQAPGQRFEWMGWINPYNGNKEFSAKFQDRVTFTADTSANTAYMELRSLRSADTAVYYCARVGPWNWDSPQDNYYMDVWGKGTTVIVSS
VL: B1 VL
IC50 (M^-1), syncytium neutralization assay, HIV-1 MN on CEM-SS cells [1]: 2.57e+09 M⁻¹
Neutralization Titer (ng/ml), syncytium assay, HIV-1 MN [1]: 19.4 ng/mL

B6: composite Fab 4H/L42-1 (Fab, V domains shown)
VH: B1 VH with T30V, V31I, W99Y, R100S, I119T
VL: B1 VL with S26Q, I27L, R28D, S29G, R30S, V89Q, A92W, S93P, S94F
Fold Increase of Mutant Kd Compared to MT4 Kd [3]: 3.02 fold
Ka [3]: 4.81e+08 M⁻¹
Kd [3]: 2.08 nM
koff [4]: 0.000615 s⁻¹
kon [4]: 296000 M⁻¹ s⁻¹

B7: composite Fab H103/L42-4 (Fab, V domains shown)
VH: B2 VH with E102H, M103Q, F104R
VL: B1 VL with S26Q, I27L, R28D, S29G, R30S, V89Q, A92W, S93P, S94F
Kd [2]: 0.113 nM
Fold Increase of Mutant Kd Compared to MT4 Kd [3]: 55.8 fold
Ka [3]: 8.88e+09 M⁻¹
Kd [3]: 0.113 nM
koff [4]: 9.41e-06 s⁻¹
kon [4]: 81800 M⁻¹ s⁻¹

B8: composite Fab H101/L42-1 (Fab, V domains shown)
VH: B2 VH with L31V, E102H, M103Q, F104R
VL: B1 VL with S26Q, I27L, R28D, S29G, R30S, V89Q, A92W, S93P, S94F
Kd [2]: 0.13 nM
Fold Increase of Mutant Kd Compared to MT4 Kd [3]: 48.5 fold
Ka [3]: 7.7e+09 M⁻¹
Kd [3]: 0.13 nM
koff [4]: 1.74e-05 s⁻¹
kon [4]: 134000 M⁻¹ s⁻¹

B9: Fab M556-15 (Fab, V domains shown)
VH: B2 VH with H28N, L31V, H45M, E102T, M103Q, F104R, Y106F
VL: B1 VL
Kd [2]: 0.174 nM
Fold Increase of Mutant Kd Compared to MT4 Kd [5]: 36.2 fold
Kd [5]: 0.174 nM

B10: Fab M556-2 (Fab, V domains shown)
VH: B2 VH with H28N, L31V, H45M, M103Q, Y106F
VL: B1 VL
Kd [2]: 0.439 nM
Fold Increase of Mutant Kd Compared to MT4 Kd [5]: 14.3 fold
Kd [5]: 0.439 nM

B11: Fab QA4 (Fab, V domains shown)
VH: B1 VH with P98E, R100G, I119T
VL: B1 VL with S26Q, I27L, R28D, S29G, R30S, V89S, A92G, S93R, S94D
Kd [2]: 0.5 nM
Fold Increase of Mutant Kd Compared to MT4 Kd [6]: 12.6 fold
Kd [6]: 0.5 nM

B12: Fab QA2 (Fab, V domains shown)
VH: B1 VH with P98E, R100G, I119T
VL: B1 VL with S26Q, I27L, R28D, S29G, R30S, V89L, A92R, S93G, S94N
Kd [2]: 0.42 nM
Fold Increase of Mutant Kd Compared to MT4 Kd [6]: 14.9 fold
Kd [6]: 0.42 nM

B13: Fab B (Fab, V domains shown)
VH: B1 VH with P98E, R100G, I119T
VL: B1 VL with S26T, I27V, R28Y, S29R, R30D
Fold Increase of Mutant Kd Compared to MT4 Kd [7]: 5.7 fold
Kd [7]: 1.1 nM

B14: composite Fab H101/4L-1 (Fab, V domains shown)
VH: B2 VH with L31V, E102H, M103Q, F104R
VL: B1 VL
Kd [2]: 0.38 nM
Fold Increase of Mutant Kd Compared to MT4 Kd [3]: 16.6 fold
Ka [3]: 2.63e+09 M⁻¹
Kd [3]: 0.38 nM
koff [4]: 3.39e-05 s⁻¹
kon [4]: 893000 M⁻¹ s⁻¹

B15: Fab QA1 (Fab, V domains shown)
VH: B1 VH with P98E, R100G, I119T
VL: B1 VL with S26Q, I27L, R28D, S29G, R30S, A92W, S94Q
Kd [2]: 0.51 nM
Fold Increase of Mutant Kd Compared to MT4 Kd [6]: 12.2 fold
Kd [6]: 0.51 nM

B16: Fab M556-7 (Fab, V domains shown)
VH: B2 VH with H28N, L31V, H45M, F104R, Y106F
VL: B1 VL
Kd [2]: 0.13 nM
Fold Increase of Mutant Kd Compared to MT4 Kd [5]: 48.1 fold
Kd [5]: 0.131 nM

B17: Fab QA9 (Fab, V domains shown)
VH: B1 VH with P98E, R100G, I119T
VL: B1 VL with S26Q, I27L, R28D, S29G, R30S, V89M, A92G, S93F, S94T
Kd [2]: 0.61 nM
Fold Increase of Mutant Kd Compared to MT4 Kd [6]: 10.3 fold
Kd [6]: 0.61 nM

B18: Fab D (Fab, V domains shown)
VH: B1 VH with P98E, R100G, I119T
VL: B1 VL with S26Q, I27L, R28D, S29G, R30S
Kd [2]: 0.22 nM
Fold Increase of Mutant Kd Compared to MT4 Kd [7]: 28.6 fold
Kd [7]: 0.22 nM

B19: Fab M556-16 (Fab, V domains shown)
VH: B2 VH with H28N, L31V, H45M, E102D, M103Q, F104V
VL: B1 VL
Kd [2]: 0.139 nM
Fold Increase of Mutant Kd Compared to MT4 Kd [5]: 45.3 fold
Kd [5]: 0.139 nM

B20: Fab QA12 (Fab, V domains shown)
VH: B1 VH with P98E, R100G, I119T
VL: B1 VL with S26Q, I27L, R28D, S29G, R30S, V89T, A92R, S93G, S94I
Kd [2]: 0.13 nM
Fold Increase of Mutant Kd Compared to MT4 Kd [6]: 48.6 fold
Kd [6]: 0.13 nM

B21: Fab A (Fab, V domains shown)
VH: B1 VH with P98E, R100G, I119T
VL: B1 VL with S26K, I27E, R28F, S29G
Fold Increase of Mutant Kd Compared to MT4 Kd [7]: 1.3 fold
Kd [7]: 4.7 nM

B22: Fab QA8 (Fab, V domains shown)
VH: B1 VH with P98E, R100G, I119T
VL: B1 VL with S26Q, I27L, R28D, S29G, R30S, V89Q, A92D, S94L
Kd [2]: 0.44 nM
Fold Increase of Mutant Kd Compared to MT4 Kd [6]: 14.3 fold
Kd [6]: 0.44 nM

B23: Fab M556-10 (Fab, V domains shown)
VH: B2 VH with H28N, L31V, H45M, E102H, M103Q, F104R
VL: B1 VL
Kd [2]: 0.906 nM
Fold Increase of Mutant Kd Compared to MT4 Kd [5]: 69.5 fold
Kd [5]: 0.0906 nM

B24: Fab QA10 (Fab, V domains shown)
VH: B1 VH with P98E, R100G, I119T
VL: B1 VL with S26Q, I27L, R28D, S29G, R30S, V89T, A92R, S93G
Kd [2]: 0.074 nM
Fold Increase of Mutant Kd Compared to MT4 Kd [6]: 85.9 fold
Kd [6]: 0.074 nM

B25: composite Fab H31/4L-14 (Fab, V domains shown)
VH: B2 VH with L31V
VL: B1 VL
Kd [2]: 0.022 nM
Fold Increase of Mutant Kd Compared to MT4 Kd [3]: 284 fold
Ka [3]: 4.51e+10 M⁻¹
Kd [3]: 0.0222 nM
koff [4]: 3.39e-06 s⁻¹
kon [4]: 153000 M⁻¹ s⁻¹

B26: Fab M556-3 (Fab, V domains shown)
VH: B2 VH with H28N, L31V, H45M
VL: B1 VL
Kd [2]: 0.1 nM
Fold Increase of Mutant Kd Compared to MT4 Kd [5]: 63 fold
Kd [5]: 0.101 nM

B27: Fab QA5 (Fab, V domains shown)
VH: B1 VH with P98E, R100G, I119T
VL: B1 VL with S26Q, I27L, R28D, S29G, R30S, V89T, A92W, S94G
Kd [2]: 0.46 nM
Fold Increase of Mutant Kd Compared to MT4 Kd [6]: 13.7 fold
Kd [6]: 0.46 nM

B28: Fab MT4 (Fab, V domains shown)
VH: B1 VH with T30V, V31I, W99Y, R100S, I119T
VL: B1 VL
notes: also called Fab 4; 4H (heavy chain)
IC50 (M^-1), syncytium neutralization assay, HIV-1 MN on CEM-SS cells [1]: 1.69e+08 M⁻¹
Neutralization Titer (ng/ml), syncytium assay, HIV-1 MN [1]: 296 ng/mL

B29: Fab QA11 (Fab, V domains shown)
VH: B1 VH with P98E, R100G, I119T
VL: B1 VL with S26Q, I27L, R28D, S29G, R30S, V89T, A92R, S93G, S94H
notes: also called LH (its light chain)
Kd [2]: 0.067 nM
Fold Increase of Mutant Kd Compared to MT4 Kd [6]: 94.4 fold
Kd [6]: 0.067 nM
